Abundance fitness data for 167 variants are collected here from the Human Domainome abundance scans (Beltran et al. 2025).

± gives the uncertainty stated by the source.

To fix the notation:
B1: Ankyrin-1, residues 1405 to 1484; numbered along this chain, P16157 (parent)
chain: MKMAVISEHLGLSWAELARELQFSVEDINRIRVENPNSLLEQSVALLNLWVIREGQNANMENLYTALQSIDRGEIVNMLE

In this series the parent is B1. The series is described as follows: abundance fitness (aPCA) (normalised: wild type 0, dead -1); higher = more abundant; growth selection in yeast, the domain comes from the species named. To be noted: Homo sapiens.
Turning to L10K, the abundance fitness was -0.509 ± 0.38.

For the variant L10Q, the abundance fitness was -0.898 ± 0.29.

Turning to L10A, the abundance fitness is -0.884 ± 0.2.

Take L10E: the abundance fitness was -1.11 ± 0.41.

For the variant L10G, the abundance fitness was -0.971 ± 0.21.

With L46K, the abundance fitness was -0.741 ± 0.31.

Regarding L46T, the abundance fitness was -0.143 ± 0.085.

As to L46I, the abundance fitness was -0.446 ± 0.12.

Take L46W: the abundance fitness is -0.638 ± 0.096.

As for L46G, the abundance fitness is -0.953 ± 0.13.

For V51T, the abundance fitness amounted to 0.068 ± 0.07.

Take V51G: the abundance fitness was -0.001 ± 0.05.

Consider P36V, for which the abundance fitness was -0.666 ± 0.12.

For the variant P36E, the abundance fitness is -0.066 ± 0.12.

Turning to P36M, the abundance fitness was -0.064 ± 0.34.

For the variant P36L, the abundance fitness was -0.774 ± 0.12.

Consider P36K, for which the abundance fitness is -0.267 ± 0.16.

In the case of P36T, the abundance fitness is -0.525 ± 0.15.

In the case of S24V, the abundance fitness was -0.722 ± 0.097.

On to S24T, for which the abundance fitness was -0.191 ± 0.088.

As for S24H, the abundance fitness is -0.429 ± 0.18.

With S24M, the abundance fitness was -0.487 ± 0.12.

Take S24K: the abundance fitness is -0.147 ± 0.099.

Consider S24C, for which the abundance fitness is -0.39 ± 0.17.

Regarding N29C, the abundance fitness was -0.184 ± 0.12.

Turning to N29M, the abundance fitness was -0.075 ± 0.068.

As to N29R, the abundance fitness is -0.007 ± 0.048.

On to V5S, for which the abundance fitness is -0.361 ± 0.062.

In the case of V5K, the abundance fitness was -0.279 ± 0.12.

On to V5Q, for which the abundance fitness is -0.483 ± 0.16.

With V5T, the abundance fitness is -0.266 ± 0.089.

For the variant V5F, the abundance fitness turned out to be 0.103 ± 0.091.

Turning to R19K, the abundance fitness is -0.048 ± 0.17.

Consider R19T, for which the abundance fitness was -0.092 ± 0.046.

For R19S, the abundance fitness is -0.123 ± 0.084.

As to E41Y, the abundance fitness is -0.28 ± 0.096.

For the variant E41R, the abundance fitness is 0.054 ± 0.053.

As to E41Q, the abundance fitness was -0.1 ± 0.12.

For the variant E41I, the abundance fitness is -0.579 ± 0.48.

Regarding E41G, the abundance fitness is -0.086 ± 0.035.

In the case of N35W, the abundance fitness was -0.222 ± 0.096.

On to N35A, for which the abundance fitness was -0.304 ± 0.095.

Consider N35Y, for which the abundance fitness is -0.42 ± 0.3.

As to N35G, the abundance fitness was -0.858 ± 0.21.

For the variant N35E, the abundance fitness came out at 0.051 ± 0.39.

As for N35I, the abundance fitness was -0.457 ± 0.11.

In the case of N35T, the abundance fitness was -0.3 ± 0.12.

Regarding W14D, the abundance fitness was -0.907 ± 0.28.

With W14P, the abundance fitness is -0.785 ± 0.24.

Consider W14C, for which the abundance fitness was -1.05 ± 0.28.

For the variant W14T, the abundance fitness is -0.758 ± 0.14.

On to W14G, for which the abundance fitness is -0.895 ± 0.12.

For W14S, the abundance fitness is -0.89 ± 0.14.

W14R: the abundance fitness is -1.08 ± 0.21.

In the case of D71Q, the abundance fitness is -0.274 ± 0.11.

As to D71T, the abundance fitness was -0.385 ± 0.15.

For D71H, the abundance fitness was -0.192 ± 0.18.

As for D71W, the abundance fitness was -0.827 ± 0.14.

With D71V, the abundance fitness was -0.83 ± 0.12.

For the variant Q68R, the abundance fitness was -0.038 ± 0.05.

As for Q68M, the abundance fitness is -0.181 ± 0.094.

Q68D: the abundance fitness is -0.109 ± 0.11.

For the variant Q68T, the abundance fitness is -0.256 ± 0.11.

Turning to Q68H, the abundance fitness was -0.029 ± 0.24.

Consider Q68V, for which the abundance fitness is -0.08 ± 0.054.

Turning to A58P, the abundance fitness came out at 0.195 ± 0.083.

Turning to A58Q, the abundance fitness was -0.095 ± 0.14.

Regarding A58G, the abundance fitness is 0.038 ± 0.048.

As for A58C, the abundance fitness came out at 0.031 ± 0.14.

For A58S, the abundance fitness was -0.078 ± 0.083.

On to A58R, for which the abundance fitness is -0.049 ± 0.065.

On to G73R, for which the abundance fitness was -0.297 ± 0.04.

Take G73P: the abundance fitness is -0.205 ± 0.058.

For the variant G73W, the abundance fitness is -0.29 ± 0.05.

On to G73F, for which the abundance fitness is -0.284 ± 0.1.

In the case of L63R, the abundance fitness was -0.95 ± 0.18.

L63E: the abundance fitness was -0.646 ± 0.24.

R32E: the abundance fitness was determined as 0.031 ± 0.05.

For the variant R32H, the abundance fitness is -0.294 ± 0.12.

On to R32T, for which the abundance fitness was -0.141 ± 0.083.

With R32Y, the abundance fitness is -0.43 ± 0.15.

With R32C, the abundance fitness was -0.13 ± 0.19.

On to L39D, for which the abundance fitness is -0.063 ± 0.18.

In the case of L39H, the abundance fitness is -0.42 ± 0.26.

As for L39E, the abundance fitness turned out to be 0.105 ± 0.09.

For the variant A45P, the abundance fitness is -0.77 ± 0.28.

On to A45M, for which the abundance fitness was -0.173 ± 0.12.

A45G: the abundance fitness is -0.248 ± 0.05.

On to I70P, for which the abundance fitness was -0.8 ± 0.19.

Consider I70L, for which the abundance fitness is -0.762 ± 0.1.

Take I70C: the abundance fitness is -0.384 ± 0.094.

Regarding I70A, the abundance fitness was -0.808 ± 0.16.

On to I28M, for which the abundance fitness is -0.341 ± 0.13.

As for I28D, the abundance fitness is -0.584 ± 0.43.

Take I28C: the abundance fitness is -0.198 ± 0.087.

As for L12D, the abundance fitness is -0.124 ± 0.16.

Regarding L12Q, the abundance fitness was -0.233 ± 0.24.

In the case of L12G, the abundance fitness amounted to 0.104 ± 0.082.

Take L12W: the abundance fitness was -0.431 ± 0.2.

L12V: the abundance fitness is 0.029 ± 0.087.

W50S: the abundance fitness was -0.734 ± 0.14.

In the case of W50K, the abundance fitness was -0.655 ± 0.18.

Turning to N59I, the abundance fitness was -0.314 ± 0.2.

With N59T, the abundance fitness was -0.338 ± 0.16.

For the variant N59R, the abundance fitness was determined as 0.034 ± 0.053.

Regarding N59L, the abundance fitness was -0.2 ± 0.1.

As to E74K, the abundance fitness is -0.471 ± 0.12.

As to E74Q, the abundance fitness is -0.45 ± 0.13.

In the case of E74D, the abundance fitness was 0.16 ± 0.16.

On to L47E, for which the abundance fitness is -0.874 ± 0.22.

On to L47P, for which the abundance fitness was -0.654 ± 0.16.

Take L47I: the abundance fitness was -0.256 ± 0.2.

As to L47H, the abundance fitness was -0.503 ± 0.33.

M60F: the abundance fitness is 0.671 ± 0.27.

As to M60H, the abundance fitness was 0.243 ± 0.24.

In the case of M60E, the abundance fitness was -0.42 ± 0.18.

Turning to Q56E, the abundance fitness worked out at 0.055 ± 0.085.

In the case of Q56G, the abundance fitness is -0.035 ± 0.05.

On to Q56C, for which the abundance fitness is -0.167 ± 0.1.

On to Q56H, for which the abundance fitness is -0.213 ± 0.26.

On to Q56L, for which the abundance fitness is -0.19 ± 0.061.

Regarding Q56A, the abundance fitness is -0.113 ± 0.091.

On to A18P, for which the abundance fitness is -0.912 ± 0.17.

For A18V, the abundance fitness was -1.07 ± 0.15.

In the case of A18N, the abundance fitness was -0.627 ± 0.29.

On to A18M, for which the abundance fitness was -0.827 ± 0.27.

Consider A18R, for which the abundance fitness is -0.681 ± 0.1.

For the variant A18Q, the abundance fitness was -0.936 ± 0.38.

A18E: the abundance fitness was -0.39 ± 0.14.

For the variant A18W, the abundance fitness is -0.9 ± 0.19.

Regarding S7G, the abundance fitness was -0.176 ± 0.04.

In the case of S7R, the abundance fitness is -0.504 ± 0.059.

S7M: the abundance fitness is -0.852 ± 0.4.

For Y64L, the abundance fitness is -0.172 ± 0.067.

For the variant Y64T, the abundance fitness was -0.049 ± 0.1.

On to Y64N, for which the abundance fitness stood at 0.087 ± 0.2.

As for Y64A, the abundance fitness is -0.494 ± 0.12.

Take Y64P: the abundance fitness is -0.725 ± 0.22.

Take Y64I: the abundance fitness is -0.302 ± 0.13.

E34D: the abundance fitness was -0.186 ± 0.33.

Take S13N: the abundance fitness was -0.404 ± 0.18.

Regarding S13T, the abundance fitness is -0.472 ± 0.18.

On to S13P, for which the abundance fitness was -0.863 ± 0.39.

In the case of S13V, the abundance fitness is -0.5 ± 0.049.

In the case of S13F, the abundance fitness was -0.333 ± 0.14.

With V76I, the abundance fitness was determined as 0.079 ± 0.13.

In the case of V76Q, the abundance fitness is -0.505 ± 0.12.

Turning to V76F, the abundance fitness is -0.528 ± 0.27.

Take V76Y: the abundance fitness is -0.264 ± 0.11.

With V76W, the abundance fitness is -0.388 ± 0.044.

Regarding L17R, the abundance fitness was -1.03 ± 0.17.

As to L17F, the abundance fitness worked out at 0.009 ± 0.11.

As for L17M, the abundance fitness was -0.25 ± 0.12.

Take L17N: the abundance fitness is -0.776 ± 0.32.

Take L17H: the abundance fitness was -0.671 ± 0.4.

Turning to R72L, the abundance fitness is -0.581 ± 0.087.

For the variant R72I, the abundance fitness is -0.753 ± 0.22.

On to R72G, for which the abundance fitness is -0.499 ± 0.065.

For the variant I31A, the abundance fitness was -0.855 ± 0.15.

On to I31H, for which the abundance fitness is -1.07 ± 0.28.

With L49M, the abundance fitness was 0.061 ± 0.047.

As to L49K, the abundance fitness was determined as 0.047 ± 0.1.

S38K: the abundance fitness is -0.386 ± 0.25.

In the case of S38W, the abundance fitness was -0.754 ± 0.21.

Consider S38F, for which the abundance fitness is -0.345 ± 0.17.

As to S38C, the abundance fitness was -0.099 ± 0.087.

In the case of S38N, the abundance fitness was -0.174 ± 0.11.
